Assay results published in patent US20170233497A1.
Where two headings read alike, the source gives them in different places.

Columns and labels:
[1] = target: recombinant extracellular domain of EGFR (UniProt P00533); experiment: EGFR-coat/anti-7D8-idiotype sandwich ELISA; mixture after 25 mM 2-MEA, 90 min, 37 °C; axis = total antibody of the mixture
[2] = target: mouse FcRn (neonatal Fc receptor), biotinylated (mouse) (UniProt Q61559); experiment: FcRn ELISA at pH 6.0
[3] = target: recombinant extracellular domain of EGFR (UniProt P00533); experiment: EGFR-coat/anti-7D8-idiotype sandwich ELISA; mixture after 25 mM 2-MEA, 90 min, 37 °C; axis = total antibody of the mixture; remark: listed apart in the source

| Substance | EC50 (read off the curve) [1] [µg/mL] | fold higher binding efficiency to mouse FcRn compared to human FcRn [2] [fold] | EC50 (read off the curve) [3] [µg/mL] |
| --- | --- | --- | --- |
| IgG1-2F8-F405L+IgG4-7D8-CPPC (bispecific antibody) | 0.3 | – | – |
| IgG1-2F8-ITL (antibody) | – | 3 | – |
| IgG4-2F8+IgG4-7D8 (deglyc) (bispecific antibody) | – | – | 0.4 |

Further lines, results first:

| EC50 (read off the curve) [1] [µg/mL] | fold higher binding efficiency to mouse FcRn compared to human FcRn [2] [fold] | EC50 (read off the curve) [3] [µg/mL] | Substance |
| --- | --- | --- | --- |
| 0.3 | – | – | IgG1-2F8-F405L+IgG4-7D8 (bispecific antibody) |
| 0.4 | – | 0.3 | IgG4-2F8 x IgG4-7D8 (bispecific antibody) |
| 0.3 | – | – | IgG4-7D8-CPPC x IgG4-2F8 (bispecific antibody) |
| – | 3 | – | bispecific IgG1 generated from IgG1-2F8-ITL and IgG1-7D8-K409R (bispecific antibody) |
